The experiment has as its target BTN3A1 ectodomain (human, UniProt O00481). Put plainly: SPR. On the technique in general: Surface plasmon resonance follows binding to a sensor surface in real time, without labels.

Chain of BTN3A1 ectodomain (O00481 30-254): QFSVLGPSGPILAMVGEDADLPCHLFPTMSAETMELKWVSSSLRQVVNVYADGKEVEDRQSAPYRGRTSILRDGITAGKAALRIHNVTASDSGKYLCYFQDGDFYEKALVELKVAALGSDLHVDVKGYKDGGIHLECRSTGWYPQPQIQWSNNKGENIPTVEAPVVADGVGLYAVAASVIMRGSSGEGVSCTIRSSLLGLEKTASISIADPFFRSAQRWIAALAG

B1: TH001 monoclonal antibody (antibody, V domains shown)
VH: EVHVKQSGAELARPGTSVKLSCKASGYTFTDYYLNWVKQRTGQGLEWIGEIYPGGGNTYYNEKFKGKATLTADKSSSTAYMQLSSLTSEDSAVYFCARRTTVVGDYWGQGTTLTVSS
VL: DVLMTQTPLSLPVSLGDQASISCRSSQSIVNSKGNTYLEWYVQKPGQSPKLLIYKVSNRFSGVPDRFSGSGSGTDFTLKISRVEAEDLGVYYCFQGSHVPWTFGGGTKLEIK
Regarding B1, the binding result was “binds”.

(Values after article doi:10.1101/2024.10.02.616253 (bioRxiv, 2024).)
